{
  "source": "the supplement of paper PMC6379048",
  "assay_in_all_cases": "EC50 of free RNA motif oligo competing protein binding to immobilised probe",
  "key": {"P4HA1": {"molecular_target": "P4HA1 (UniProt P13674)", "sequence (P13674 whole entry)": "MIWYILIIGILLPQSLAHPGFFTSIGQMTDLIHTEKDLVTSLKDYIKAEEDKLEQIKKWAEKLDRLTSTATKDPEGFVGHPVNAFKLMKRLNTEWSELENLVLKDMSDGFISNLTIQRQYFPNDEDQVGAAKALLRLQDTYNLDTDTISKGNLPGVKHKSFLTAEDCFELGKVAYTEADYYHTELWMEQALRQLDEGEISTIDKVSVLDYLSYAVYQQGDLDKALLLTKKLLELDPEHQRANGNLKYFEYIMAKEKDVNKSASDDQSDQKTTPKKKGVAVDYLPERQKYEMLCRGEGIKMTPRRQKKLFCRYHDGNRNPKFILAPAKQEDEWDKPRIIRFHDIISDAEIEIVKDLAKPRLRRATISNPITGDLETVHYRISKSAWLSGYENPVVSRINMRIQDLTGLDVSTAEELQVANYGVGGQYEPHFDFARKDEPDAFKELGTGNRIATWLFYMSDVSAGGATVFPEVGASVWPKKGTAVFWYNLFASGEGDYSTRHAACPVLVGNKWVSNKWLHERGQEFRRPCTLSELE", "summary_of_the_method": "(§1)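 Over three biological replicates and two independent experiments, proteins captured on NHS-Sepharose beads carrying 5′-amino-C6 RNA oligos were quantified by label-free LC-MS/MS and normalised to the control. Capture lasted 30 min at 4°C and followed a 1 h pre-incubation at 4°C of HEK293-FT lysate (2.5 mg protein/well) with the same oligos in free form (0 nM to 30 μM). EC50 was taken from a four-parameter log-logistic fit, and Kd was EC50 corrected by a protein-dependent depletion factor.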"}, "ZRANB2": {"molecular_target": "T1, ZRANB2 (UniProt O95218)", "T1 sequence": "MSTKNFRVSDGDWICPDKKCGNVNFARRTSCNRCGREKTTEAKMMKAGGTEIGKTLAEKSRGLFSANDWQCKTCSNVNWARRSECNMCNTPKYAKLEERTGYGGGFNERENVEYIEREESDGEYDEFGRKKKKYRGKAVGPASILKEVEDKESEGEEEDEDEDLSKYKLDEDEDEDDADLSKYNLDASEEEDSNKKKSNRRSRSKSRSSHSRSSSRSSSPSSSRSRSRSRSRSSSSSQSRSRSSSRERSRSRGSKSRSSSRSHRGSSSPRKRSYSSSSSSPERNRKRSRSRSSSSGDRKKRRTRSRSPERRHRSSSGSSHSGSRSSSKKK", "summary_of_the_method": "as §1"}, "DHX30": {"molecular_target": "T2, DHX30 (UniProt Q7L2E3)", "T2 sequence": "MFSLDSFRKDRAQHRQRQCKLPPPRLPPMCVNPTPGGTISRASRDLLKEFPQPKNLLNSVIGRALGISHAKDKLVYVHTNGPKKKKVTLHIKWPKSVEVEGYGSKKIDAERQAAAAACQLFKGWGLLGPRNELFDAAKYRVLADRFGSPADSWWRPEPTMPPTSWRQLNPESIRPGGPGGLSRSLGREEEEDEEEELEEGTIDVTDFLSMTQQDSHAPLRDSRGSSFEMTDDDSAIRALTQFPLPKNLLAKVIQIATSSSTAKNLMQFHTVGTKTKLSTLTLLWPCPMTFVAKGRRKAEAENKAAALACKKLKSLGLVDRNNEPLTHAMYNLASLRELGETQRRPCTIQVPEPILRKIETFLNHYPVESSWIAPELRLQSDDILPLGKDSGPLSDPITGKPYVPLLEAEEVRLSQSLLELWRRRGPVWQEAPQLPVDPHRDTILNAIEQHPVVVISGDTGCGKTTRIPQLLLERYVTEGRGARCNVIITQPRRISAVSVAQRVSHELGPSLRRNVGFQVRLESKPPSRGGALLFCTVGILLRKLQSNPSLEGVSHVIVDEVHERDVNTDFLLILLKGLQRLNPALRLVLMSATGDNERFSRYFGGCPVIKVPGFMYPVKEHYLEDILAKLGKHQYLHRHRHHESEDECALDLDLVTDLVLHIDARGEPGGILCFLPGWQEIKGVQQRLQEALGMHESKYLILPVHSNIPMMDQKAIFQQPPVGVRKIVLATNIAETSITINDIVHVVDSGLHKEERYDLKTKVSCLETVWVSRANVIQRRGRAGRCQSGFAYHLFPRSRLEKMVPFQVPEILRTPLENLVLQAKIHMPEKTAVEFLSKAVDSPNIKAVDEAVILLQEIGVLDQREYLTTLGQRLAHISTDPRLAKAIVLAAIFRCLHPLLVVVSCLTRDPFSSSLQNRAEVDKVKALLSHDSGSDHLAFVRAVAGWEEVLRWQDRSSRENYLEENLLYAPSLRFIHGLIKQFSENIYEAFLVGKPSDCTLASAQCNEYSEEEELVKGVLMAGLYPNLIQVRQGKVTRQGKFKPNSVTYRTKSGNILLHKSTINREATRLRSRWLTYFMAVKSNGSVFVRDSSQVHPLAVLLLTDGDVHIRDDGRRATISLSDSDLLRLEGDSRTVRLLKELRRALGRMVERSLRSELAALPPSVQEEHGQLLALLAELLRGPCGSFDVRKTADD", "summary_of_the_method": "as §1"}, "CSTF2T": {"molecular_target": "T3, CSTF2T (UniProt Q9H0L4)", "T3 sequence": "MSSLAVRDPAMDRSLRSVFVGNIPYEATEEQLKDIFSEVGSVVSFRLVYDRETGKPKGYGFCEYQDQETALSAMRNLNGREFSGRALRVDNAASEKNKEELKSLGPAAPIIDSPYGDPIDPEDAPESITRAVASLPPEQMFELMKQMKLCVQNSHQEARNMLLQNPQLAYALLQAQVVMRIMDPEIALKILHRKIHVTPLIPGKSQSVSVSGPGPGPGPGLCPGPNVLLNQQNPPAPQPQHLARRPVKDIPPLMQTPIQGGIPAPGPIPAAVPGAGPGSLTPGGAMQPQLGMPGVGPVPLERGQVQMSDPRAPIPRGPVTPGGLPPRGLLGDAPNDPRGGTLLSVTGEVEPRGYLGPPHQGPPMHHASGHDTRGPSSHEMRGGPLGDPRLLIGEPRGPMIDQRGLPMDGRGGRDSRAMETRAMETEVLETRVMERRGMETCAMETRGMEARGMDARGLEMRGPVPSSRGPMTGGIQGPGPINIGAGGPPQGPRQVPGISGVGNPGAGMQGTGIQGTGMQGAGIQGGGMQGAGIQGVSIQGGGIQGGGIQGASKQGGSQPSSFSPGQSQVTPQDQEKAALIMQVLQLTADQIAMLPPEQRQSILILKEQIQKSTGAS", "summary_of_the_method": "as §1"}, "HNRNPA0": {"molecular_target": "T4, HNRNPA0 (UniProt Q13151)", "T4 sequence": "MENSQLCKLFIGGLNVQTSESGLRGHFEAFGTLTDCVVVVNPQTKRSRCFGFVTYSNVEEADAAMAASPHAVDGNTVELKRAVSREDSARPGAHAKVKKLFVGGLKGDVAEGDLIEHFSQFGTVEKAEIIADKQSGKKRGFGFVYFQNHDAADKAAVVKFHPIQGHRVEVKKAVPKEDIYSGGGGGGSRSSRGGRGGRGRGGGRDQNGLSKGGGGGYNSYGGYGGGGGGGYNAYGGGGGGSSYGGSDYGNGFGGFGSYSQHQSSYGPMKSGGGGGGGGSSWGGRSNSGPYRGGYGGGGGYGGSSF", "summary_of_the_method": "as §1"}},
  "data": [
    {"sequence": "AAUAAA", "values": [
      {"measurement": "EC50", "setting": "P4HA1", "value": 65.6, "unit": "nM"},
      {"measurement": "EC50", "setting": "ZRANB2", "value": 1900, "unit": "nM"}
    ]},
    {"sequence": "CUGUCCU", "values": [
      {"measurement": "EC50", "setting": "DHX30", "value": 113, "unit": "nM"}
    ]},
    {"sequence": "UAUUUAU", "values": [
      {"measurement": "EC50", "setting": "CSTF2T", "value": 357, "unit": "nM"},
      {"measurement": "EC50", "setting": "HNRNPA0", "value": 4860, "unit": "nM"}
    ]}
  ]
}
